Binding result and Kd data for one molecule are collected here from patent KR20150077891A (dated 2015).

Test [1] deals with T1, YRS (Tyrosyl-tRNA synthetase), recombinant (UniProt P54577 1-528, limits assumed).
T1 construct: also called 타이로실-tRNA 합성효소
T1 sequence (looked up): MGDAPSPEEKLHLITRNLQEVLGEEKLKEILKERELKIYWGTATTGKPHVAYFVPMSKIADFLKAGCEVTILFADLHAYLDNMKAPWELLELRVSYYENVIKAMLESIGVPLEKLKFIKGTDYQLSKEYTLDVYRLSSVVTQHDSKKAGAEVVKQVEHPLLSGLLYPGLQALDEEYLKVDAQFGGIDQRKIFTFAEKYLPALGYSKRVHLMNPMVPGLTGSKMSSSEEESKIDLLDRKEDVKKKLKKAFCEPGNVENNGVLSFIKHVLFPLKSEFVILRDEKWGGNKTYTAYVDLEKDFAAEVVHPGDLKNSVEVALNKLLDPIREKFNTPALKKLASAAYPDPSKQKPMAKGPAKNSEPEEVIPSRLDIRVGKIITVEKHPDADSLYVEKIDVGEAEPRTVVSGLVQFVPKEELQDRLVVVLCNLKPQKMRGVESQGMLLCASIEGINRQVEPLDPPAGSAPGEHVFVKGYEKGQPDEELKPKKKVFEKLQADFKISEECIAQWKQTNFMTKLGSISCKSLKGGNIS
As to the kind of experiment: Luminex multiplex bead assay, antigen coupled to beads, anti-HA-biotin / SA-PE detection.

In test [2] the target is T2, GRS (Glycyl-tRNA synthetase), recombinant (UniProt P41250 55-739, limits assumed).
T2 construct: also called 글리실-tRNA 합성효소
T2 sequence (looked up): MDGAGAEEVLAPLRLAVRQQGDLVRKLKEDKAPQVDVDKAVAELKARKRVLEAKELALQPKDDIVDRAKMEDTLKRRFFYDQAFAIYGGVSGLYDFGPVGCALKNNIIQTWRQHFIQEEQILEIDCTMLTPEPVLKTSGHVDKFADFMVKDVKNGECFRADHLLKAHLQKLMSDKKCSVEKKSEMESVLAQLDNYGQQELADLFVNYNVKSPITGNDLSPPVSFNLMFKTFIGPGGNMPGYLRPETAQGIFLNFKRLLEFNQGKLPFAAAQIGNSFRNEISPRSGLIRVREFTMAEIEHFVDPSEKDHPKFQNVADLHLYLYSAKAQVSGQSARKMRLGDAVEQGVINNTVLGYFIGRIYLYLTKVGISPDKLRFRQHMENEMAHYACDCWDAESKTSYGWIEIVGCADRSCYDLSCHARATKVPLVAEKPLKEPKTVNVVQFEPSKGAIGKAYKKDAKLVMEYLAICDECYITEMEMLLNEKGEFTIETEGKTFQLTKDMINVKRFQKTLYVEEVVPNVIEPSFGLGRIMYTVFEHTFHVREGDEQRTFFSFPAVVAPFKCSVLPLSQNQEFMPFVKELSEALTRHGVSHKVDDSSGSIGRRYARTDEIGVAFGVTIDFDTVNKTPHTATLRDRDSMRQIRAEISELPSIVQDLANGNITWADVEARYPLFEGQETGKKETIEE
Described as above.

The target of test [3] is T3, NRS (Asparaginyl-tRNA synthetase), recombinant (UniProt O43776 1-548, limits assumed).
T3 construct: also called 아스파라기닐딜-tRNA 합성효소
T3 sequence (looked up): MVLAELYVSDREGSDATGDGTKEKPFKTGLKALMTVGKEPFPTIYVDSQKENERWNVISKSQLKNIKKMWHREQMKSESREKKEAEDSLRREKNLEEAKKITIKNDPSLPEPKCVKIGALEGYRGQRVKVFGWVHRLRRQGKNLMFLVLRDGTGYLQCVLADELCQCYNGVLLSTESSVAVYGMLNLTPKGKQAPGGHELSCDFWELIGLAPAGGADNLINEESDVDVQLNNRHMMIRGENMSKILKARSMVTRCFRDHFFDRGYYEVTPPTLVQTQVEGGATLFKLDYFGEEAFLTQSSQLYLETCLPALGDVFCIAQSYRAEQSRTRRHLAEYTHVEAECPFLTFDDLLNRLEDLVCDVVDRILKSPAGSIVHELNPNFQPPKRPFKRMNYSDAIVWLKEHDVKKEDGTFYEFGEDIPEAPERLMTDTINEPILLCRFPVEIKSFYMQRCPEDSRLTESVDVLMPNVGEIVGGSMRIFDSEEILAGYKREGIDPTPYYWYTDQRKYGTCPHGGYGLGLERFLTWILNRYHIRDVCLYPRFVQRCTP
Described as above.

The target in test [4] is T4, KRS (Lysyl-tRNA synthetase), recombinant (UniProt Q15046 1-597, limits assumed).
T4 construct: also called 리실-tRNA 합성효소
The test is described as above.

For test [5], the target named is T5, AIMP1 (Aminoacyl-tRNA-synthetase-interacting multifunctional protein 1), recombinant (UniProt Q12904 1-312, limits assumed).
T5 construct: also called p43; AIMP1(p43)
T5 sequence (looked up): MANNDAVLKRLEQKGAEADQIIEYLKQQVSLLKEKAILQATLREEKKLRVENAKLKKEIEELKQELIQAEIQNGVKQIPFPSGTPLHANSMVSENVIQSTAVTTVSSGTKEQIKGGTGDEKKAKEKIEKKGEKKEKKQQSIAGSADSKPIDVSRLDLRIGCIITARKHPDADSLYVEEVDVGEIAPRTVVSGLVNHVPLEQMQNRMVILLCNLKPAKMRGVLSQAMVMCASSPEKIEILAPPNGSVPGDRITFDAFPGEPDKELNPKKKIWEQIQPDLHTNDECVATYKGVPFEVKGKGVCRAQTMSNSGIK
Described as above.

For test [6], the target named is T6, HRS (Histidyl-tRNA synthetase), recombinant (UniProt P12081 1-509, limits assumed).
T6 construct: also called 히스티딜-tRNA 합성효소
T6 sequence (looked up): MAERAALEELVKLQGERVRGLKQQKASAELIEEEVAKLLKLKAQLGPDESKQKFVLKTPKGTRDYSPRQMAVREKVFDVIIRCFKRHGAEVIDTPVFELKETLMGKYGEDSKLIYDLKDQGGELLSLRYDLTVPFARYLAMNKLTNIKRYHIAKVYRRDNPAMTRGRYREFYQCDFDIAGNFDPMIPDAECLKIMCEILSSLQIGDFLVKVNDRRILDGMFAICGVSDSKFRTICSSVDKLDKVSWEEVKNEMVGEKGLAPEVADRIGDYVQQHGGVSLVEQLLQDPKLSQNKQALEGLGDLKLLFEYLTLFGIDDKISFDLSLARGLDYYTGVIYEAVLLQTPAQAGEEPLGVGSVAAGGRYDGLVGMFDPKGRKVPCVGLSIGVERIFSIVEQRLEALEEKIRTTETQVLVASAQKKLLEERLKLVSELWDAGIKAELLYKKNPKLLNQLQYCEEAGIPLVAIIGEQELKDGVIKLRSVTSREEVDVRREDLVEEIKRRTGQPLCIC
The test is described as above.

For test [7], the target named is T7, SRS (Seryl-tRNA synthetase), recombinant (UniProt P49591 1-514, limits assumed).
T7 construct: also called 세릴-tRNA 합성효소
The test is described as above.

Test [8] addresses T8, WRS (tryptophanyl-tRNA synthetase), purified recombinant antigen / standard (human, UniProt P23381 1-471, limits assumed).
T8 construct: The recombinant construct used for panning, SPR, Luminex beads and ELISA is not described; also called WRS 항원; 재조합 WRS 표준물질
T8 sequence (looked up): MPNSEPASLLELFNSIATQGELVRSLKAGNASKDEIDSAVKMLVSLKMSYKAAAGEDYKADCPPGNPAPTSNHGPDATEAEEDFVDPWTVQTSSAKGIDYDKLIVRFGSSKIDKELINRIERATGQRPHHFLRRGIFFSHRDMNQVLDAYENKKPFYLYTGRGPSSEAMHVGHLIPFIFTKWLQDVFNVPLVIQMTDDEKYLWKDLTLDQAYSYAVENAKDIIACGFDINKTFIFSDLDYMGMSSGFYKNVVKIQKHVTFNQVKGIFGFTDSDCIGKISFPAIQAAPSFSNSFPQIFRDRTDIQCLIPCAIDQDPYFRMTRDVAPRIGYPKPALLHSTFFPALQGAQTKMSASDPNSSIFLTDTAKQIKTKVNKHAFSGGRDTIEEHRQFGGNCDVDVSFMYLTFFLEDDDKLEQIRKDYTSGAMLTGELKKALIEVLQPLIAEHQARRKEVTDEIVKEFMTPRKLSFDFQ
As to the kind of experiment: SPR (ProteOn XPR36), WRS amine-coupled to GLC chip, scFv 500-30 nM as analyte, 25 C.

T7 sequence (P49591 whole entry): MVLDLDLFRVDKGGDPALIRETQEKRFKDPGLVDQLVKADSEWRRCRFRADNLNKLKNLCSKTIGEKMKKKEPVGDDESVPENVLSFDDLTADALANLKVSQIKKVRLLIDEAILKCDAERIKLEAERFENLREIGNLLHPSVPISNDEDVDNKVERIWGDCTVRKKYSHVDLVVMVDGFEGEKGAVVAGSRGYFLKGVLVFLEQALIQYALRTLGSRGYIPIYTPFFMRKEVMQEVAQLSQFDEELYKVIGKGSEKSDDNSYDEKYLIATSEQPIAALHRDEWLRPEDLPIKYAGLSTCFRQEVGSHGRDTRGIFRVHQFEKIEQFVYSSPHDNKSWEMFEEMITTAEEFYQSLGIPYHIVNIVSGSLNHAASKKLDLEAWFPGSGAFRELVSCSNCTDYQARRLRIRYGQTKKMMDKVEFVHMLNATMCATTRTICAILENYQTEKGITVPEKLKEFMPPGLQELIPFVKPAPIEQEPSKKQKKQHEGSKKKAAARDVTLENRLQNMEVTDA
T4 sequence (Q15046 whole entry): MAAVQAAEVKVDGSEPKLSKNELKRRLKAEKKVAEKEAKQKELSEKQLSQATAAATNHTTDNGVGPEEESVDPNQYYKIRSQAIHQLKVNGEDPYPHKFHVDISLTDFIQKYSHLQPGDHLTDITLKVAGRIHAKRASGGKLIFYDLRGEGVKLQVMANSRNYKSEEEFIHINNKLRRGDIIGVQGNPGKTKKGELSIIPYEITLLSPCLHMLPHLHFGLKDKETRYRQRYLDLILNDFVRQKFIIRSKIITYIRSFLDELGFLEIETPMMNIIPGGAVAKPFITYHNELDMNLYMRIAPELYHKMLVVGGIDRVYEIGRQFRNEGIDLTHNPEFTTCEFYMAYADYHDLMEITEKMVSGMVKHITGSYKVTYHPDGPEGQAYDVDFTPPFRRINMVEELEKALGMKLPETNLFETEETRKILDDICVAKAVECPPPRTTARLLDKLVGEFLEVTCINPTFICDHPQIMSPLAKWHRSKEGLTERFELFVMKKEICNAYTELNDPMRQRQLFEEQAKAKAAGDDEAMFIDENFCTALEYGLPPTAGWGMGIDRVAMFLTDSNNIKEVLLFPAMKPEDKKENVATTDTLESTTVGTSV

B1: anti-WRS scFv Biocon-W1 (scFv)
scFv: EVQLLESGGGLVQPGGSLRLSCAASGLAFSDYYMSWVRLAPGKGLEWVSVISPGSGSKYYADSVRGRFTVSRDNSKNTLYLQMNSLRAEDTAVYYCARKNQAFDYWGQGTLVTVSSGGGGSGGGGSGGGGSQSVLTQPPSASGTPGQRVTISCTGSSSNIGSNYVTWYQQLPGTAPKLLIYANSQRPSGVPDRFSGSKSGTSASLAISGLRSEDEADYYCASWDASLSGYVFGGGTKLTVL
notes: Single clone selected from a human VH3-23/VL1g synthetic scFv phage library and expressed in the E. coli periplasm; also called 항 WRS scFv 항체; 본 발명의 항체; not shown: His and HA tags from the pComb3X vector, implied by Ni-NTA purification and anti-HA detection
A word on the Kd: it is a measure of binding affinity in units of concentration. On to B1, for which the binding result in test [1], in test [2], in test [3], in test [4], in test [5] and in test [6] was “no binding” in each case. In addition, in test [7], the binding result is listed as “no binding”. Moreover, the Kd in test [8] was determined as 700 nM.
